Experimental data as given in US20040086528A1 (PROGENICS PHARMACEUTICALS, published 2004).
Positions count from the first letter of the chain named.

B1: RANTES, recombinant human (ligand)
chain: SPYSSDTTPCCFAYIARPLPRAHIKEYFYTSGKCSNPAVVFVTRKNRQVCANPEKKWVREYINSLEMS
B2: macrophage inflammatory protein (MIP)-1β, recombinant human (ligand, UniProt P13236 24-92, looked up)
chain: APMGSDPPTACCFSYTARKLPRNFVVDYYETSSLCSQPAVVFQTKRSKQVCADPSESWVQEYVYDLELN

Columns and labels:
Test in all cases: cell-based or functional assay
[1] = biological target: T1, CCR5 N13A, HA-tagged (human, UniProt P51681 1-352)
T1 sequence: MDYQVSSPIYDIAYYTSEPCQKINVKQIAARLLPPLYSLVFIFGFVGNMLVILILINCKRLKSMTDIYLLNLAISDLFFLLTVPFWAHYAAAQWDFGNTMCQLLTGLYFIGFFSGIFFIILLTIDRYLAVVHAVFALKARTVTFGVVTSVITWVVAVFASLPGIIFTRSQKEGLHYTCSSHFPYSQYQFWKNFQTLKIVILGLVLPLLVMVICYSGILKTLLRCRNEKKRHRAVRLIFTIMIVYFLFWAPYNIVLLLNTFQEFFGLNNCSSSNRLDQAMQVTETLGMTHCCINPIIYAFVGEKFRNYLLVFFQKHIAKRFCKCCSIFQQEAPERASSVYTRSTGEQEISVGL

[2] = biological target: T2, CCR5 E18A, HA-tagged (human, UniProt P51681 1-352)
T2 sequence (looked up): T1 sequence with A13N, E18A

[3] = biological target: T3, CCR5 K22A, HA-tagged (human, UniProt P51681 1-352)
T3 sequence: T1 sequence with A13N, K22A

[4] = biological target: T4, CCR5 H181A, HA-tagged (human, UniProt P51681 1-352)
T4 sequence: T1 sequence with A13N, H181A

[5] = biological target: T5, CCR5 Y184A, HA-tagged (human, UniProt P51681 1-352)
T5 sequence: T1 sequence with A13N, Y184A

[6] = biological target: T6, CCR5 K191A/N192A, HA-tagged (human, UniProt P51681 1-352)
T6 sequence: T1 sequence with A13N, K191A, N192A

[7] = biological target: T7, CCR5 E262A, HA-tagged (human, UniProt P51681 1-352)
T7 sequence: T1 sequence with A13N, E262A

| Binder | relative % inhibition of NLluc/JR-FL entry into U87MG-CD4 cells by 2 µg/ml chemokine (wild-type = 100) [1] [%] | relative % inhibition of NLluc/JR-FL entry into U87MG-CD4 cells by 2 µg/ml chemokine (wild-type = 100) [2] [%] | relative % inhibition of NLluc/JR-FL entry into U87MG-CD4 cells by 2 µg/ml chemokine (wild-type = 100) [3] [%] | relative % inhibition of NLluc/JR-FL entry into U87MG-CD4 cells by 2 µg/ml chemokine (wild-type = 100) [4] [%] | relative % inhibition of NLluc/JR-FL entry into U87MG-CD4 cells by 2 µg/ml chemokine (wild-type = 100) [5] [%] | relative % inhibition of NLluc/JR-FL entry into U87MG-CD4 cells by 2 µg/ml chemokine (wild-type = 100) [6] [%] | relative % inhibition of NLluc/JR-FL entry into U87MG-CD4 cells by 2 µg/ml chemokine (wild-type = 100) [7] [%] |
| --- | --- | --- | --- | --- | --- | --- | --- |
| B1 | 92 | 62 | -11 | 39 | 36 | 18 | 100 |
| B2 | 93 | 100 | 12 | 53 | 68 | 15 | 102 |
